Data as given in US12630600B2 (MEDIMMUNE LIMITED, priority 2022, dated 2026).
Starred links: 1 amine or outer side, 2 acyl side, 3 side chain; linkers in the order of their positions; H or OH if unused. Non-standard residues stand in square brackets, D forms with d. Groups on a side chain read outwards from the residue. No end group written: not given here. *: point of attachment. C20 diacid = O=C(O)CCCCCCCCCCCCCCCCCCC(=O)*; C18 diacid = O=C(O)CCCCCCCCCCCCCCCCC(=O)*; γGlu = O=C(O)[C@H](CCC(=O)[*:2])N[*:1]; αMeF = C[C@](N)(Cc1ccccc1)C(=O)O; AEEA = NCCOCCOCC(=O)O; Aib = CC(C)(N)C(=O)O

Legend:
human glucagon receptor = human glucagon receptor (human, UniProt P47871); experiment: cell-based or functional assay
human GLP-1 receptor = human GLP-1 receptor (human, UniProt P43220); experiment: cell-based or functional assay

B1: Peptide 499 (peptide)
peptide: H[Aib]QGTFTSDVSK[αMeF]LDTK([AEEA-AEEA-γGlu-C18 diacid])RAQDFVQWLLR[Aib]A-OH
modifications: N-terminus assumed
SMILES: CC(C)C[C@H](NC(=O)[C@H](Cc1c[nH]c2ccccc12)NC(=O)[C@H](CCC(N)=O)NC(=O)[C@@H](NC(=O)[C@H](Cc1ccccc1)NC(=O)[C@H](CC(=O)O)NC(=O)[C@H](CCC(N)=O)NC(=O)[C@H](C)NC(=O)[C@H](CCCNC(=N)N)NC(=O)[C@H](CCCCNC(=O)COCCOCCNC(=O)COCCOCCNC(=O)CC[C@H](NC(=O)CCCCCCCCCCCCCCCCC(=O)O)C(=O)O)NC(=O)[C@@H](NC(=O)[C@H](CC(=O)O)NC(=O)[C@H](CC(C)C)NC(=O)[C@](C)(Cc1ccccc1)NC(=O)[C@H](CCCCN)NC(=O)[C@H](CO)NC(=O)[C@@H](NC(=O)[C@H](CC(=O)O)NC(=O)[C@H](CO)NC(=O)[C@@H](NC(=O)[C@H](Cc1ccccc1)NC(=O)[C@@H](NC(=O)CNC(=O)[C@H](CCC(N)=O)NC(=O)C(C)(C)NC(=O)[C@@H](N)Cc1c[nH]cn1)[C@@H](C)O)[C@@H](C)O)C(C)C)[C@@H](C)O)C(C)C)C(=O)N[C@@H](CC(C)C)C(=O)N[C@@H](CCCNC(=N)N)C(=O)NC(C)(C)C(=O)N[C@@H](C)C(=O)O
cAMP production EC50 (human glucagon receptor): 0.0788 nM
cAMP production EC50 (human GLP-1 receptor): 0.0406 nM

B2: Peptide 500 (peptide)
peptide: H[Aib]QGTFTSDVSK[αMeF]LDTK([AEEA-AEEA-γGlu-C20 diacid])RAQDFVQWLLR[Aib]A-OH
modifications: N-terminus assumed
SMILES: CC(C)C[C@H](NC(=O)[C@H](Cc1c[nH]c2ccccc12)NC(=O)[C@H](CCC(N)=O)NC(=O)[C@@H](NC(=O)[C@H](Cc1ccccc1)NC(=O)[C@H](CC(=O)O)NC(=O)[C@H](CCC(N)=O)NC(=O)[C@H](C)NC(=O)[C@H](CCCNC(=N)N)NC(=O)[C@H](CCCCNC(=O)COCCOCCNC(=O)COCCOCCNC(=O)CC[C@H](NC(=O)CCCCCCCCCCCCCCCCCCC(=O)O)C(=O)O)NC(=O)[C@@H](NC(=O)[C@H](CC(=O)O)NC(=O)[C@H](CC(C)C)NC(=O)[C@](C)(Cc1ccccc1)NC(=O)[C@H](CCCCN)NC(=O)[C@H](CO)NC(=O)[C@@H](NC(=O)[C@H](CC(=O)O)NC(=O)[C@H](CO)NC(=O)[C@@H](NC(=O)[C@H](Cc1ccccc1)NC(=O)[C@@H](NC(=O)CNC(=O)[C@H](CCC(N)=O)NC(=O)C(C)(C)NC(=O)[C@@H](N)Cc1c[nH]cn1)[C@@H](C)O)[C@@H](C)O)C(C)C)[C@@H](C)O)C(C)C)C(=O)N[C@@H](CC(C)C)C(=O)N[C@@H](CCCNC(=N)N)C(=O)NC(C)(C)C(=O)N[C@@H](C)C(=O)O
cAMP production EC50 (human glucagon receptor): 0.101 nM
cAMP production EC50 (human GLP-1 receptor): 0.102 nM

B3: Peptide 501 (peptide)
peptide: H[Aib]QGTFTSDVSK[αMeF]LDTK([AEEA-AEEA-γGlu-C18 diacid])RARDFVQWLLR[Aib]A-OH
modifications: N-terminus assumed
SMILES: CC(C)C[C@H](NC(=O)[C@H](Cc1c[nH]c2ccccc12)NC(=O)[C@H](CCC(N)=O)NC(=O)[C@@H](NC(=O)[C@H](Cc1ccccc1)NC(=O)[C@H](CC(=O)O)NC(=O)[C@H](CCCNC(=N)N)NC(=O)[C@H](C)NC(=O)[C@H](CCCNC(=N)N)NC(=O)[C@H](CCCCNC(=O)COCCOCCNC(=O)COCCOCCNC(=O)CC[C@H](NC(=O)CCCCCCCCCCCCCCCCC(=O)O)C(=O)O)NC(=O)[C@@H](NC(=O)[C@H](CC(=O)O)NC(=O)[C@H](CC(C)C)NC(=O)[C@](C)(Cc1ccccc1)NC(=O)[C@H](CCCCN)NC(=O)[C@H](CO)NC(=O)[C@@H](NC(=O)[C@H](CC(=O)O)NC(=O)[C@H](CO)NC(=O)[C@@H](NC(=O)[C@H](Cc1ccccc1)NC(=O)[C@@H](NC(=O)CNC(=O)[C@H](CCC(N)=O)NC(=O)C(C)(C)NC(=O)[C@@H](N)Cc1c[nH]cn1)[C@@H](C)O)[C@@H](C)O)C(C)C)[C@@H](C)O)C(C)C)C(=O)N[C@@H](CC(C)C)C(=O)N[C@@H](CCCNC(=N)N)C(=O)NC(C)(C)C(=O)N[C@@H](C)C(=O)O
cAMP production EC50 (human glucagon receptor): 0.0756 nM
cAMP production EC50 (human GLP-1 receptor): 0.0265 nM

B4: Peptide 502 (peptide)
peptide: H[Aib]QGTFTSDVSK[αMeF]LDTK([AEEA-AEEA-γGlu-C20 diacid])RARDFVQWLLR[Aib]A-OH
modifications: N-terminus assumed
SMILES: CC(C)C[C@H](NC(=O)[C@H](Cc1c[nH]c2ccccc12)NC(=O)[C@H](CCC(N)=O)NC(=O)[C@@H](NC(=O)[C@H](Cc1ccccc1)NC(=O)[C@H](CC(=O)O)NC(=O)[C@H](CCCNC(=N)N)NC(=O)[C@H](C)NC(=O)[C@H](CCCNC(=N)N)NC(=O)[C@H](CCCCNC(=O)COCCOCCNC(=O)COCCOCCNC(=O)CC[C@H](NC(=O)CCCCCCCCCCCCCCCCCCC(=O)O)C(=O)O)NC(=O)[C@@H](NC(=O)[C@H](CC(=O)O)NC(=O)[C@H](CC(C)C)NC(=O)[C@](C)(Cc1ccccc1)NC(=O)[C@H](CCCCN)NC(=O)[C@H](CO)NC(=O)[C@@H](NC(=O)[C@H](CC(=O)O)NC(=O)[C@H](CO)NC(=O)[C@@H](NC(=O)[C@H](Cc1ccccc1)NC(=O)[C@@H](NC(=O)CNC(=O)[C@H](CCC(N)=O)NC(=O)C(C)(C)NC(=O)[C@@H](N)Cc1c[nH]cn1)[C@@H](C)O)[C@@H](C)O)C(C)C)[C@@H](C)O)C(C)C)C(=O)N[C@@H](CC(C)C)C(=O)N[C@@H](CCCNC(=N)N)C(=O)NC(C)(C)C(=O)N[C@@H](C)C(=O)O
cAMP production EC50 (human glucagon receptor): 0.175 nM
cAMP production EC50 (human GLP-1 receptor): 0.0821 nM

H[Aib]QGTFTSDVSK[αMeF]LDTK([AEEA-AEEA-γGlu-C20 diacid])RAQDFVRWLLE[Aib]K-OH [Peptide 503]
cAMP production EC50 (human glucagon receptor): 0.0849 nM
cAMP production EC50 (human GLP-1 receptor): 0.0812 nM

B5: Peptide 504 (peptide)
peptide: H[Aib]QGTFTSDVSK[αMeF]LESK([AEEA-AEEA-γGlu-C20 diacid])RAQDFVRWLLE[Aib]K-OH
modifications: N-terminus assumed
SMILES: CC(C)C[C@H](NC(=O)[C@H](Cc1c[nH]c2ccccc12)NC(=O)[C@H](CCCNC(=N)N)NC(=O)[C@@H](NC(=O)[C@H](Cc1ccccc1)NC(=O)[C@H](CC(=O)O)NC(=O)[C@H](CCC(N)=O)NC(=O)[C@H](C)NC(=O)[C@H](CCCNC(=N)N)NC(=O)[C@H](CCCCNC(=O)COCCOCCNC(=O)COCCOCCNC(=O)CC[C@H](NC(=O)CCCCCCCCCCCCCCCCCCC(=O)O)C(=O)O)NC(=O)[C@H](CO)NC(=O)[C@H](CCC(=O)O)NC(=O)[C@H](CC(C)C)NC(=O)[C@](C)(Cc1ccccc1)NC(=O)[C@H](CCCCN)NC(=O)[C@H](CO)NC(=O)[C@@H](NC(=O)[C@H](CC(=O)O)NC(=O)[C@H](CO)NC(=O)[C@@H](NC(=O)[C@H](Cc1ccccc1)NC(=O)[C@@H](NC(=O)CNC(=O)[C@H](CCC(N)=O)NC(=O)C(C)(C)NC(=O)[C@@H](N)Cc1c[nH]cn1)[C@@H](C)O)[C@@H](C)O)C(C)C)C(C)C)C(=O)N[C@@H](CC(C)C)C(=O)N[C@@H](CCC(=O)O)C(=O)NC(C)(C)C(=O)N[C@@H](CCCCN)C(=O)O
cAMP production EC50 (human glucagon receptor): 0.551 nM
cAMP production EC50 (human GLP-1 receptor): 0.124 nM

B6: Peptide 505 (peptide)
peptide: H[Aib]QGTFTSDVSK[αMeF]LDTK([AEEA-AEEA-γGlu-C20 diacid])RAQDFVQWLLE[Aib]K-NH2
modifications: N-terminus assumed
SMILES: CC(C)C[C@H](NC(=O)[C@H](Cc1c[nH]c2ccccc12)NC(=O)[C@H](CCC(N)=O)NC(=O)[C@@H](NC(=O)[C@H](Cc1ccccc1)NC(=O)[C@H](CC(=O)O)NC(=O)[C@H](CCC(N)=O)NC(=O)[C@H](C)NC(=O)[C@H](CCCNC(=N)N)NC(=O)[C@H](CCCCNC(=O)COCCOCCNC(=O)COCCOCCNC(=O)CC[C@H](NC(=O)CCCCCCCCCCCCCCCCCCC(=O)O)C(=O)O)NC(=O)[C@@H](NC(=O)[C@H](CC(=O)O)NC(=O)[C@H](CC(C)C)NC(=O)[C@](C)(Cc1ccccc1)NC(=O)[C@H](CCCCN)NC(=O)[C@H](CO)NC(=O)[C@@H](NC(=O)[C@H](CC(=O)O)NC(=O)[C@H](CO)NC(=O)[C@@H](NC(=O)[C@H](Cc1ccccc1)NC(=O)[C@@H](NC(=O)CNC(=O)[C@H](CCC(N)=O)NC(=O)C(C)(C)NC(=O)[C@@H](N)Cc1c[nH]cn1)[C@@H](C)O)[C@@H](C)O)C(C)C)[C@@H](C)O)C(C)C)C(=O)N[C@@H](CC(C)C)C(=O)N[C@@H](CCC(=O)O)C(=O)NC(C)(C)C(=O)N[C@@H](CCCCN)C(N)=O
cAMP production EC50 (human glucagon receptor): 0.191 nM
cAMP production EC50 (human GLP-1 receptor): 0.0421 nM

B7: Peptide 506 (peptide)
peptide: H[Aib]QGTFTSDVSK[αMeF]LDTK([AEEA-AEEA-γGlu-C20 diacid])RARDFVAWLLE[Aib]G-OH
modifications: N-terminus assumed
SMILES: CC(C)C[C@H](NC(=O)[C@H](Cc1c[nH]c2ccccc12)NC(=O)[C@H](C)NC(=O)[C@@H](NC(=O)[C@H](Cc1ccccc1)NC(=O)[C@H](CC(=O)O)NC(=O)[C@H](CCCNC(=N)N)NC(=O)[C@H](C)NC(=O)[C@H](CCCNC(=N)N)NC(=O)[C@H](CCCCNC(=O)COCCOCCNC(=O)COCCOCCNC(=O)CC[C@H](NC(=O)CCCCCCCCCCCCCCCCCCC(=O)O)C(=O)O)NC(=O)[C@@H](NC(=O)[C@H](CC(=O)O)NC(=O)[C@H](CC(C)C)NC(=O)[C@](C)(Cc1ccccc1)NC(=O)[C@H](CCCCN)NC(=O)[C@H](CO)NC(=O)[C@@H](NC(=O)[C@H](CC(=O)O)NC(=O)[C@H](CO)NC(=O)[C@@H](NC(=O)[C@H](Cc1ccccc1)NC(=O)[C@@H](NC(=O)CNC(=O)[C@H](CCC(N)=O)NC(=O)C(C)(C)NC(=O)[C@@H](N)Cc1c[nH]cn1)[C@@H](C)O)[C@@H](C)O)C(C)C)[C@@H](C)O)C(C)C)C(=O)N[C@@H](CC(C)C)C(=O)N[C@@H](CCC(=O)O)C(=O)NC(C)(C)C(=O)NCC(=O)O
cAMP production EC50 (human glucagon receptor): 0.149 nM
cAMP production EC50 (human GLP-1 receptor): 0.162 nM

H[Aib]QGTFTSDVSK[αMeF]LDTK([AEEA-AEEA-γGlu-C20 diacid])RARDFVAWLLE[Aib]G-NH2 [Peptide 507]
cAMP production EC50 (human glucagon receptor): 0.0866 nM
cAMP production EC50 (human GLP-1 receptor): 0.0529 nM
